# Patent US5091176A, “Polymer-modified peptide drugs having enhanced biological and pharmacological activities” (W. R. Grace & Co.-Conn., priority 1990, dated 1992)
# Columns and labels:
# [1] = target: T1, alkaline phosphatase (Bos taurus, UniProt P19111); assay: Residual enzymatic activity of alkaline phosphatase after polymer modification (Example V, Table I); type: biochemical; conditions: for alk phos activity dA/dt: alkaline phosphatase reacted 1 hour with prepolymer at the listed NCO:protein NH2 ratio, quenched with TRIS, dialyzed; for alk phos activity % Remaining: relative to control without prepolymer, prepolymer at the listed NCO:protein NH2 ratio
# Method: A constant amount of protein was treated with increasing amount of prepolymer and the residual activity was determined. For comparison with Prepolymer A (high temperature) prepolymers, two other isocyanate prepolymers were used. One is a 550 dalton mono methoxy polyethylene oxide end capped with IPDI; the second is a diol ([…] P-24) of molecular weight 2200 comprising 80% ethylene oxide and 20% propylene oxide, end capped with IPDI. Thus the 3+functionality of Prepolymer A is compared to mono- and di-functional isocyanate derivatives.
# After one hour at ambient temperature the residual isocyanate was quenched by addition of 9 ml of 0.5 M TRIS, pH 9.0. The samples were then dialyzed vs. 0.05 M sodium borate, pH 9.0 at 4° C. using 7000 MWCO dialysis tubing. Samples of each were assayed for enzymatic activity then stored frozen.
# Table 1 lists the relative amounts of protein amine and polymer isocyanate reacted, and the residual enzymatic activity remaining.
# [2] = Circulatory half-life of radioiodinated peptide and conjugate after tail vein injection; set-up: species or system C57B1/6 mice; conditions: mouse, in vivo
# Method: The conjugate from Example XIII was passed over a disposable Sephadex G25 column (PD10 from Pharmacia, Inc.) to separate free from polymer-bound peptide. Confirmation of the purity of the conjugate was obtained by HPLC. About 45 μg of conjugate (based on peptide) were radiolabeled with 125-iodine using the well known chloramine-T procedure. Free 125-iodine was separated from radiolabeled conjugate using a PD10 column. Of the original 30 μCi of Na^125 I used for the iodination, more than 23 μCi were incorporated into the conjugate.
# Portions of the radiolabeled YRGDS-Prepolymer A conjugate from Example XIV were injected into the tail veins of C57B1/6 mice. As a control, YRGDS free peptide was radioiodinated by the procedure described in Example XIV and also injected. At various times blood was withdrawn from the animals and the amount of radioiodine remaining in the circulation determined using a gamma counter. A biphasic clearance curve (α:β) was obtained for both species. […] Thus by coupling the peptide to this polymer its clearance rate from the circulation is markedly extended.
# [3] = system: alkaline phosphatase; conditions: alkaline phosphatase 50 ng/well; rabbit antisera, day 35 test bleed; FIG. 1
# Method: Antibody titers in the five rabbit sera from Example VI were determined by ELISA based on the following general procedure:
# 1) antigen is immobilized in 96-well PVC plates,
# 2) test antiserum is diluted with phosphate-TWEEN-chicken serum (PTCS) and incubated on the plate for 1 hour,
# 3) the plate is washed and Biotin-Protein A is added for 1 hour,
# 4) the plate is washed and glucose oxidase-avidin is added for 15 minutes.
# 5) the plate is washed and substrate (glucose+peroxidase+ABTS) is added. Absorbance at 405 nm is read at intervals on a plate reader.
# [4] = target: T1, alkaline phosphatase; assay: Residual enzyme activity of alkaline phosphatase-Prepolymer A conjugates, p-nitrophenylphosphate as substrate (Examples IX, X); type: biochemical, calf; set-up: Alkaline Phosphatase from calf intestine, Type I, was obtained from Sigma; purchased Sigma Type I; host or cells: calf intestine (tissue-derived); conditions: after 1 hour at ambient temperature
# Method: Alkaline Phosphatase from calf intestine, Type I, was obtained from Sigma. A 5 mg/ml solution was prepared in 0.01 M Tris, pH 8.0, containing 1mM CaCl2. To 0.2 ml of this enzyme solution was added 0.02 ml of a 50% (w/w) solution of Prepolymer A (low temperature) in acetonitrile. After 1 hour at ambient temperature the solution was assayed for residual enzyme activity and injected into an HPLC to evaluate the molecular size of the conjugate. […] Size analysis was performed by HPLC using a Zorbax GF250 column (DuPont) and a mobile phase consisting of 0.05 M sodium phosphate, pH 7.0, with 0.3 M NaCl at a flow rate of 0.5 ml/min.
Molecule,alk phos activity dA/dt [1],alk phos activity % Remaining [1] [%],also measured
alkaline phosphatase,0.1200,100.0,–
tyr-arg-gly-aspser [YRGDS free peptide],–,–,half-life of the initial phase (t178 α) [2]: 30 s; label cleared in the initial phase [2]: about 75%; second phase half life (t1/2 β) [2]: 2 hours 40 minutes
"A4: alkaline phosphatase coupled to mono-functional IPDI-capped methoxy polyethylene oxide, NCO:NH2 14.9:1 (conjugate, UniProt P19111 20-506, looked up, coupled to IPDI-capped methoxy PEG) Intestinal-type alkaline …: LVPVEEEDPAFWNRQAAQALDVAKKLQPIQTAAKNVILFLGDGMGVPTVTATRILKGQMNGKLGPETPLAMDQFPYVALSKTYNVDRQVPDSAGTATAYLCGVKGNYRTIGVSAAARYNQCKTTRGNEVTSVMNRAKKAGKSVGVVTTTRVQHASPAGAYAHTVNRNWYSDADLPADAQMNGCQDIAAQLVNNMDIDVILGGGRKYMFPVGTPDPEYPDDASVNGVRKRKQNLVQAWQAKHQGAQYVWNRTALLQAADDSSVTHLMGLFEPADMKYNVQQDHTKDPTLQEMTEVALRVVSRNPRGFYLFVEGGRIDHGHHDDKAYMALTEAGMFDNAIAKANELTSELDTLILVTADHSHVFSFGGYTLRGTSIFGLAPSKALDSKSYTSILYGNGPGYALGGGSRPDVNDSTSEDPSYQQQAAVPQASETHGGEDVAVFARGPQAHLVHGVEEETFVAHIMAFAGCVEPYTDCNLPAPTTATSIPD",0.0313,26.1,–
"C1: alkaline phosphatase coupled to tri-functional Prepolymer A (high temperature), NCO:NH2 0.7:1 (conjugate, UniProt P19111 20-506, looked up, coupled to Prepolymer A) Intestinal-type alkaline …: LVPVEEEDPAFWNRQAAQALDVAKKLQPIQTAAKNVILFLGDGMGVPTVTATRILKGQMNGKLGPETPLAMDQFPYVALSKTYNVDRQVPDSAGTATAYLCGVKGNYRTIGVSAAARYNQCKTTRGNEVTSVMNRAKKAGKSVGVVTTTRVQHASPAGAYAHTVNRNWYSDADLPADAQMNGCQDIAAQLVNNMDIDVILGGGRKYMFPVGTPDPEYPDDASVNGVRKRKQNLVQAWQAKHQGAQYVWNRTALLQAADDSSVTHLMGLFEPADMKYNVQQDHTKDPTLQEMTEVALRVVSRNPRGFYLFVEGGRIDHGHHDDKAYMALTEAGMFDNAIAKANELTSELDTLILVTADHSHVFSFGGYTLRGTSIFGLAPSKALDSKSYTSILYGNGPGYALGGGSRPDVNDSTSEDPSYQQQAAVPQASETHGGEDVAVFARGPQAHLVHGVEEETFVAHIMAFAGCVEPYTDCNLPAPTTATSIPD",–,–,binding of the antiserum raised against the antigen to immobilized alkaline phosphatase (immunogenicity) [3]: negligible binding
"Example IX: calf intestine alkaline phosphatase conjugated with Prepolymer A (low temperature), 1 hour reaction (conjugate, UniProt P19111 20-506, looked up, conjugated with Prepolymer A) Intestinal-type alkaline …: LVPVEEEDPAFWNRQAAQALDVAKKLQPIQTAAKNVILFLGDGMGVPTVTATRILKGQMNGKLGPETPLAMDQFPYVALSKTYNVDRQVPDSAGTATAYLCGVKGNYRTIGVSAAARYNQCKTTRGNEVTSVMNRAKKAGKSVGVVTTTRVQHASPAGAYAHTVNRNWYSDADLPADAQMNGCQDIAAQLVNNMDIDVILGGGRKYMFPVGTPDPEYPDDASVNGVRKRKQNLVQAWQAKHQGAQYVWNRTALLQAADDSSVTHLMGLFEPADMKYNVQQDHTKDPTLQEMTEVALRVVSRNPRGFYLFVEGGRIDHGHHDDKAYMALTEAGMFDNAIAKANELTSELDTLILVTADHSHVFSFGGYTLRGTSIFGLAPSKALDSKSYTSILYGNGPGYALGGGSRPDVNDSTSEDPSYQQQAAVPQASETHGGEDVAVFARGPQAHLVHGVEEETFVAHIMAFAGCVEPYTDCNLPAPTTATSIPD",–,–,enzymatic activity remained after the reaction [4]: 54%
"C2: alkaline phosphatase coupled to tri-functional Prepolymer A (high temperature), NCO:NH2 1.3:1 (conjugate, UniProt P19111 20-506, looked up, coupled to Prepolymer A) Intestinal-type alkaline …: LVPVEEEDPAFWNRQAAQALDVAKKLQPIQTAAKNVILFLGDGMGVPTVTATRILKGQMNGKLGPETPLAMDQFPYVALSKTYNVDRQVPDSAGTATAYLCGVKGNYRTIGVSAAARYNQCKTTRGNEVTSVMNRAKKAGKSVGVVTTTRVQHASPAGAYAHTVNRNWYSDADLPADAQMNGCQDIAAQLVNNMDIDVILGGGRKYMFPVGTPDPEYPDDASVNGVRKRKQNLVQAWQAKHQGAQYVWNRTALLQAADDSSVTHLMGLFEPADMKYNVQQDHTKDPTLQEMTEVALRVVSRNPRGFYLFVEGGRIDHGHHDDKAYMALTEAGMFDNAIAKANELTSELDTLILVTADHSHVFSFGGYTLRGTSIFGLAPSKALDSKSYTSILYGNGPGYALGGGSRPDVNDSTSEDPSYQQQAAVPQASETHGGEDVAVFARGPQAHLVHGVEEETFVAHIMAFAGCVEPYTDCNLPAPTTATSIPD",0.0688,57.5,–
"B2: alkaline phosphatase coupled to IPDI-capped diol TAKELACK P-24, NCO:NH2 2.7:1 (conjugate, UniProt P19111 20-506, looked up, coupled to IPDI-capped diol polymer) Intestinal-type alkaline …: LVPVEEEDPAFWNRQAAQALDVAKKLQPIQTAAKNVILFLGDGMGVPTVTATRILKGQMNGKLGPETPLAMDQFPYVALSKTYNVDRQVPDSAGTATAYLCGVKGNYRTIGVSAAARYNQCKTTRGNEVTSVMNRAKKAGKSVGVVTTTRVQHASPAGAYAHTVNRNWYSDADLPADAQMNGCQDIAAQLVNNMDIDVILGGGRKYMFPVGTPDPEYPDDASVNGVRKRKQNLVQAWQAKHQGAQYVWNRTALLQAADDSSVTHLMGLFEPADMKYNVQQDHTKDPTLQEMTEVALRVVSRNPRGFYLFVEGGRIDHGHHDDKAYMALTEAGMFDNAIAKANELTSELDTLILVTADHSHVFSFGGYTLRGTSIFGLAPSKALDSKSYTSILYGNGPGYALGGGSRPDVNDSTSEDPSYQQQAAVPQASETHGGEDVAVFARGPQAHLVHGVEEETFVAHIMAFAGCVEPYTDCNLPAPTTATSIPD",0.0604,50.3,–
"B3: alkaline phosphatase coupled to IPDI-capped diol TAKELACK P-24, NCO:NH2 6.8:1 (conjugate, UniProt P19111 20-506, looked up, coupled to IPDI-capped diol polymer) Intestinal-type alkaline …: LVPVEEEDPAFWNRQAAQALDVAKKLQPIQTAAKNVILFLGDGMGVPTVTATRILKGQMNGKLGPETPLAMDQFPYVALSKTYNVDRQVPDSAGTATAYLCGVKGNYRTIGVSAAARYNQCKTTRGNEVTSVMNRAKKAGKSVGVVTTTRVQHASPAGAYAHTVNRNWYSDADLPADAQMNGCQDIAAQLVNNMDIDVILGGGRKYMFPVGTPDPEYPDDASVNGVRKRKQNLVQAWQAKHQGAQYVWNRTALLQAADDSSVTHLMGLFEPADMKYNVQQDHTKDPTLQEMTEVALRVVSRNPRGFYLFVEGGRIDHGHHDDKAYMALTEAGMFDNAIAKANELTSELDTLILVTADHSHVFSFGGYTLRGTSIFGLAPSKALDSKSYTSILYGNGPGYALGGGSRPDVNDSTSEDPSYQQQAAVPQASETHGGEDVAVFARGPQAHLVHGVEEETFVAHIMAFAGCVEPYTDCNLPAPTTATSIPD",0.0389,32.4,–
